Target: the molecule itself
Test: SDS-PAGE of unboiled and boiled samples

B1: cholera toxin B-subunit (CTB) (natural protein)
chain: TPQNITDLCAEYHNTQIYTLNDKIFSYTESLAGKREMAIITFKNGAIFQVEVPGSQHIDSQKKAIERMKDTLRIAYLTEAKVEKLCVWNNKTPHAIAAISMAN
- stoichiometry N: 5
